Patent US20070189962A1 (GOV OF US AS REPRESENTED BY THE SEC OF HEALTH, published 2007)
Where a chain is given by its changes, count along the chain named.

Experiments:
CD22 (human) = CD22 (human) (UniProt P20273); test: cell-based or functional assay
mesothelin = mesothelin (UniProt Q13421); test: cell-based or functional assay
CD22 [1] = biological target: T1, CD22 (human, UniProt P20273 20-847); test: monoclonal phage FACS on Daudi cells
T1 construct: whole, on cells; also called native CD22(αβ) on Daudi cells; CD22 antigen
T1 sequence (looked up): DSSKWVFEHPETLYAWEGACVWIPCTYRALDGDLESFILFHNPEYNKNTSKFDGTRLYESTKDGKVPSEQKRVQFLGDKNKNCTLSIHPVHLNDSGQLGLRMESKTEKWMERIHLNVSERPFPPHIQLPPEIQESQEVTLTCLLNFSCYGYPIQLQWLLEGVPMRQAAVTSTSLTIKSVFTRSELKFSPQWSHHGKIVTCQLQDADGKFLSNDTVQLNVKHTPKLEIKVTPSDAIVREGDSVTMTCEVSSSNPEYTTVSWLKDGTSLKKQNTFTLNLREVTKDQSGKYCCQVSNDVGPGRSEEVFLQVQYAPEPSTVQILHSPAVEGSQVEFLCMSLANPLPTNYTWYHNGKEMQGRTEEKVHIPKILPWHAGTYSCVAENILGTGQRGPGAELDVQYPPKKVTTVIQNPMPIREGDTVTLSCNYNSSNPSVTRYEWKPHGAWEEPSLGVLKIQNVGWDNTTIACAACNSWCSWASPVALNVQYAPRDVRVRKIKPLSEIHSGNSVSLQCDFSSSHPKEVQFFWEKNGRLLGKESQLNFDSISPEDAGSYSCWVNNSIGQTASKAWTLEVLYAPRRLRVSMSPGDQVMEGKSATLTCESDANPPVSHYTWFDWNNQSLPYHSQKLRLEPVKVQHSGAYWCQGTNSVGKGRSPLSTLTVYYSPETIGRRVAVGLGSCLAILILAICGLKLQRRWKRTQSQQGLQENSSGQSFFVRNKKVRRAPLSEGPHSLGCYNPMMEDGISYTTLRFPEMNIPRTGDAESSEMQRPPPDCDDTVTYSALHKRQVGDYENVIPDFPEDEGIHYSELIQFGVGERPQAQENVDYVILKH

CD22 [2] = biological target: T1, CD22; test: monoclonal phage FACS on Daudi cells; HA22 is the reference that the mutants exceed

mesothelin, sequence (Q13421 other isoform, or with tags, fused parts or gaps limits assumed): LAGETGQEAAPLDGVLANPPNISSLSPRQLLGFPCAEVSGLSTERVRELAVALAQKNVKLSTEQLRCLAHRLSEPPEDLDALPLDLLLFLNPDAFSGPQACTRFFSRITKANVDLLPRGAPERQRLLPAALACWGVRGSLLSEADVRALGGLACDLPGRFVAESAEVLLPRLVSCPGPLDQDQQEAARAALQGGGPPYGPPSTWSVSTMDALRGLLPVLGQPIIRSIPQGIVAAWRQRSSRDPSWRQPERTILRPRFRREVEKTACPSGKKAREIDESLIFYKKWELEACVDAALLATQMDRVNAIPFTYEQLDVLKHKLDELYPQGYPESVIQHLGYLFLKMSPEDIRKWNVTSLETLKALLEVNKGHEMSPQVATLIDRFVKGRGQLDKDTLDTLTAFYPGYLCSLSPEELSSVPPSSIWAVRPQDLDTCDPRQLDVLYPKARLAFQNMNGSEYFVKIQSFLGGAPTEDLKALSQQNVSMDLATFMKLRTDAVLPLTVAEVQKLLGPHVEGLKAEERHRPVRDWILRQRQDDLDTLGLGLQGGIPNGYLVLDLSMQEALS

HA22 RFB4 (scFv)-PE38 immunotoxin
Cytotoxic Activity (IC50), Daudi (30 min incubation) (CD22 (human)): 5.6 ng/mL
Cytotoxic Activity (IC50), Daudi, 16 hr, protein synthesis (CD22 (human)): 0.52 ng/mL
Cytotoxic Activity (IC50), Namalwa (CD22 (human)): 1.2 ng/mL
Cytotoxic Activity (IC50), Ramos (CD22 (human)): 4.9 ng/mL

SS1P
IC50, inhibition of protein synthesis, A431/K5 (mesothelin): 0.7 ng/mL
IC50, inhibition of protein synthesis, A1847 (mesothelin): 4 ng/mL

SS1P (R490A)
IC50, inhibition of protein synthesis, A431/K5 (mesothelin): 0.45 ng/mL
IC50, inhibition of protein synthesis, A1847 (mesothelin): 1.5 ng/mL

HA22 (R490A)
Cytotoxicity activity (IC50), protein synthesis inhibition, Daudi (CD22 (human)): 0.2 ng/mL
Cytotoxicity activity (IC50), protein synthesis inhibition, Raji (CD22 (human)): 0.3 ng/mL

RFB4 (dsFv)-PE38
Cytotoxicity activity (IC50), protein synthesis inhibition, Daudi (CD22 (human)): 2.8 ng/mL
Cytotoxicity activity (IC50), protein synthesis inhibition, Raji (CD22 (human)): 2.5 ng/mL

B1: B5 (scFv displayed on phage) (scFv, V domains shown)
VH: EVQLVESGGGLVKPGGSLKLSCAASGFAFSIYDMSWVRQTPEKRLEWVAYISSGGGTTYYPDTVKGRFTISRDNAKNTLYLQMSSLKSEDTAMYYCARHSGYGTHWGVLFAYWGQGTLVTVSA
VL: DIQMTQTTSSLSASLGDRVTISCRASQDIHGYLNWYQQKPDGTVKLLIYYTSILHSGVPSRFSGSGSGTDYSLTISNLEQEDFATYFCQQGNTLPWTFGGGTKLEIK
notes: also called mutant B5; L-CDR1 HG mutant of HA22
binding result (CD22 [1]): binds

B2: E6 (scFv displayed on phage) (scFv, V domains shown)
VH: B1 VH
VL: B1 VL with H30G, G31R
notes: also called L-CDR1 GR mutant of HA22
binding result (CD22 [1]): binds

B3: B8 (scFv displayed on phage) (scFv, V domains shown)
VH: B1 VH
VL: B1 VL with H30R
notes: also called L-CDR1 RG mutant of HA22
binding result (CD22 [1]): binds

B4: HA22 (scFv displayed on phage) (scFv, V domains shown)
VH: B1 VH
VL: B1 VL with H30S, G31N
notes: also called starting molecule; RFB4 with SSY of H-CDR3 mutated to THW
binding result (CD22 [2]): binds

B5: D8 (scFv displayed on phage) (scFv, V domains shown)
VH: B1 VH
VL: B1 VL with H30A, G31R
notes: also called L-CDR1 AR mutant of HA22
binding result (CD22 [1]): binds
